Data on 2 molecules can be found in PMC6868437.

Common to all, as to experiment: pull-down
For test [1], the target named is GST-Rps3, wt (yeast (S. cerevisiae)) (UniProt P05750).
The target of test [2] is rps3-R116D fused to GST (yeast (S. cerevisiae)) (UniProt P05750).
Test [3] has as its target GST-a/tif32-CTD-box33 (yeast (S. cerevisiae)) (UniProt P38249).
The target of test [4] is GST-a/tif32-CTD-box32 (yeast (S. cerevisiae)) (UniProt P38249).

For “[35S]-labelled full-length a/Tif32 with box32 (from UniProt P38249 1-964) (natural protein)”, the reduction of binding against wt full-length a/Tif32 in test [1] came to 50%. In test [2], this molecule displayed a reduction of binding against GST-Rps3 wt of 35% and a reduction of binding against wt full-length a/Tif32 of 50%.

B1: [35S]-labelled uS3/Rps3, wt (natural protein)
chain: MVALISKKRKLVADGVFYAELNEFFTRELAEEGYSGVEVRVTPTKTEVIIRATRTQDVLGENGRRINELTLLVQKRFKYAPGTIVLYAERVQDRGLSAVAQAESMKFKLLNGLAIRRAAYGVVRYVMESGAKGCEVVVSGKLRAARAKAMKFADGFLIHSGQPVNDFIDTATRHVLMRQGVLGIKVKIMRDPAKSRTGPKALPDAVTIIEPKEEEPILAPSVKDYRPAEETEAQAEPVEA
modifications: [35S]-labelled
As for B1, the reduction of binding against the wt a/Tif32-CTD in test [3] and in test [4] was 80% each time.
